The text below walks through data of patent publication US20260209362A1 (VIB VZW, published 2026).

One may read the koff as the first-order rate constant of dissociation.

Assay [1] concerns the target T1, biotinylated recombinant human IL-12Rβ2 (human, UniProt Q99665 24-622, random biotinylated).
T1 construct: Recombinant protein produced in-house, biotinylated; also called hIL-12RB2; human IL-12RB2
T1 sequence: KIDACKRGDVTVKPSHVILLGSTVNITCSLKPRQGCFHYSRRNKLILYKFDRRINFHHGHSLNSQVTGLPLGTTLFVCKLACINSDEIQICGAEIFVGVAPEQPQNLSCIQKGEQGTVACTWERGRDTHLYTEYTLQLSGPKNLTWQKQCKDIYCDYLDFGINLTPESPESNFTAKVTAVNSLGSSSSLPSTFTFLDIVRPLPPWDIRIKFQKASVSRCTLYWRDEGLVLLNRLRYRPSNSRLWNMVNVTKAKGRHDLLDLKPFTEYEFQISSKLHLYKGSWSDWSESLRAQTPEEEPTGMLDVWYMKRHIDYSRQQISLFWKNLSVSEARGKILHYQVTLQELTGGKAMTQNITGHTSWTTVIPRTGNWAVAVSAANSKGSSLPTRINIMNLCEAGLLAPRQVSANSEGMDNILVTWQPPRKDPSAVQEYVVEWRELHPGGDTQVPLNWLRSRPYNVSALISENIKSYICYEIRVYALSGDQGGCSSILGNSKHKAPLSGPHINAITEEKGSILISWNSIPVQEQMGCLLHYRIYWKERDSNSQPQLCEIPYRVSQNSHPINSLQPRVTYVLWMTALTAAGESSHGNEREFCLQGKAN
Nature of the assay: BLI (Octet), periplasmic extract on biotinylated hIL-12Rβ2 on streptavidin tips.

In assay [2] the target is T1, biotinylated recombinant human IL-12Rβ2. Put plainly: ELISA, periplasmic extract on biotinylated hIL-12Rβ2, signal over control wells. Background: ELISA stands for enzyme-linked immunosorbent assay.
The target of assay [3] is T2, biotinylated recombinant mouse IL-12Rβ2 (mouse, UniProt P97378 24-637, random biotinylated).
T2 construct: Recombinant protein produced in-house, biotinylated; also called mIL-12RB2; mouse IL-12RB2
T2 sequence: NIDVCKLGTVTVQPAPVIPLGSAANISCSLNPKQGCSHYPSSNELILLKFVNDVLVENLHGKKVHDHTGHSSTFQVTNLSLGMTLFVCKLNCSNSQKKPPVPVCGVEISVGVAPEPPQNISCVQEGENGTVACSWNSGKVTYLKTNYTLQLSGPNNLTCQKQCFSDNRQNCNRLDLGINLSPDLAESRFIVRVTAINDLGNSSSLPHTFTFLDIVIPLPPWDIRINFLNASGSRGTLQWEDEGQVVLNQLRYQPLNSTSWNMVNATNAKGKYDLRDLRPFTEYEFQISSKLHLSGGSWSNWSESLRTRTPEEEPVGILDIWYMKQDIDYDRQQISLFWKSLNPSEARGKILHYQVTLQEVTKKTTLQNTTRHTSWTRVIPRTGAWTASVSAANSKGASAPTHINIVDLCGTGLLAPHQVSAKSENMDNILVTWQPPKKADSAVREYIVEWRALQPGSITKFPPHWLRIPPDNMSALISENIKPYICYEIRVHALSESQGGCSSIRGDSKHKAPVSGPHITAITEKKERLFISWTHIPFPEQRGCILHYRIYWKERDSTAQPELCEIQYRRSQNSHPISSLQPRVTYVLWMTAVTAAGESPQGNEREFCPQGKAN
Put plainly: ELISA, periplasmic extract on biotinylated mIL-12Rβ2, signal over control wells.

Assay [4] has as its target T1, biotinylated recombinant human IL-12Rβ2. Nature of the assay: BLI (Octet), periplasmic extract on biotinylated hIL-12Rβ2 on streptavidin tips, 1:1 model. In general terms: Biolayer interferometry detects binding as a change in optical thickness at a sensor tip.
Assay [5] addresses T3, biotinylated recombinant human IL-12Rβ2 (produced in-house) (human, UniProt Q99665 24-622, randomly biotinylated).
T3 construct: also called hIL-12RB2; human IL-12RB2
T3 sequence: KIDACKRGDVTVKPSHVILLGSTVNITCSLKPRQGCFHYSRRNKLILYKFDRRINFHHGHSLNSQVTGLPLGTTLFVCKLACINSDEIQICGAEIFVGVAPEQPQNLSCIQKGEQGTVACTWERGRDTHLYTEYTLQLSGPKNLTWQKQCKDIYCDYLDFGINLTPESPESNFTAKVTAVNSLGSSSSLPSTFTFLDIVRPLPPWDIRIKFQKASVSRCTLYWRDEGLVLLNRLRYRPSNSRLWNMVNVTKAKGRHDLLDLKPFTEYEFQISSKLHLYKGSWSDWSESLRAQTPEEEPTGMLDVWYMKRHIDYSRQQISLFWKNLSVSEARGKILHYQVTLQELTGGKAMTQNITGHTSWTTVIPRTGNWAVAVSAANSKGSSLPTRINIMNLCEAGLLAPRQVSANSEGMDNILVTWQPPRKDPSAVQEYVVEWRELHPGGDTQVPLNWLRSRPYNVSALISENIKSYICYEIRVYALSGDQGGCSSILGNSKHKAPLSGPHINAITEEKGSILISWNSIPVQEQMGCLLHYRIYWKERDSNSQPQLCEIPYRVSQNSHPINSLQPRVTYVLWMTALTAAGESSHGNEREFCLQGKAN
Put plainly: ELISA, periplasmic extract on biotinylated human IL-12Rβ2; control streptavidin-coated blocked wells.

In assay [6] the target is T4, biotinylated recombinant mouse IL-12Rβ2 (produced in-house) (mouse, UniProt P97378 24-637, randomly biotinylated).
T4 construct: also called mIL-12RB2; mouse IL-12RB2
T4 sequence: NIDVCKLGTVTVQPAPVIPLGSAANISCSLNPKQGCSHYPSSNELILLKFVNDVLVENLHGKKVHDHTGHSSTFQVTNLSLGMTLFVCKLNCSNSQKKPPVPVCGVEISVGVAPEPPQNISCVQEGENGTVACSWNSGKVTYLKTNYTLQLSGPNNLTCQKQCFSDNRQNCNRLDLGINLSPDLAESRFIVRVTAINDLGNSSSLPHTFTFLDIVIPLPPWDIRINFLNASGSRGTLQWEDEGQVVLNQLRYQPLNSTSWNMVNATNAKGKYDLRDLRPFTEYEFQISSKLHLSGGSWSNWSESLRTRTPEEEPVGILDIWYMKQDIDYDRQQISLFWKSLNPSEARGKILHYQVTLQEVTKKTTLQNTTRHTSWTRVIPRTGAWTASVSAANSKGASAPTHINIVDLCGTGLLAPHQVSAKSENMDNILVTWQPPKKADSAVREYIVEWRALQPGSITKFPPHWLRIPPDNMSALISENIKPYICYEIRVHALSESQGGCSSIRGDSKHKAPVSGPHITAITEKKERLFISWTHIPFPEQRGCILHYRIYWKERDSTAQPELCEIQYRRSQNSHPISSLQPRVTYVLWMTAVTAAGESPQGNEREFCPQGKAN
Nature of the assay: ELISA, periplasmic extract on biotinylated mouse IL-12Rβ2; control streptavidin-coated blocked wells.

B1: anti-IL-12Rβ2 VHH clone 20391 (VHH, not shown: small tags and cut ends)
VHH: QVQLQESGGGLVQAGGSLRLSCAASGRTVDSYAMGWFRQTPGKEREFVAASWGGGSTYYADSVKGRFTISRDNVKNTMYLQMDSLKPEDTAVYYCAAGPTYYSGPINDNWEGRYDSWGQGTQVTVSS
notes: tested as periplasmic extract; also called 3CRH93
As to B1, the Response in assay [1] was 0.426. In addition, in assay [2], the “ELISA binding hIL-12RB2/control” value is 3.45 ratio. Further, in assay [3], the “ELISA binding mIL-12RB2/control” value was 1.38 ratio. Also, in assay [4], the off-rate (koff) was found to be 0.00486 s⁻¹.

B2: anti-IL-12Rβ2 VHH clone 3CAM65 (VHH)
VHH: QVQLQESGGGLVQAGGSLRLSCAPSGRTFTTYVMGWFRQAPGKEREFVAHISWSGGRTYYADSVKGRFTISRDNAKNTSYLQMNSLKPEDTAVYYCAAARSDAVRIGYAEGYEYWGQGTQVTVSS
notes: Tested as periplasmic extract; CDR3 group 49; also called 20513
For B2, the “ELISA binding hIL-12RB2/control” value in assay [5] was 1.25 ratio to control. Further, the “ELISA binding mIL-12RB2/control” value in assay [6] was 5.98 ratio to control.

B3: anti-IL-12Rβ2 VHH clone 2CRM28 (VHH)
VHH: QVQLQESGGGLVQPGGSLRLSCAASGRAWNEYNMGWFRQAPGKEREFVALIWWSSGNTYYADSVKGRFTISRDKVKNTVYLQMNSLKPEDTAVYYCAAGPTFNKYEYWGQGTQVTVSS
notes: Tested as periplasmic extract; CDR3 group 40
On to B3, for which the “ELISA binding hIL-12RB2/control” value in assay [5] is 1 ratio to control. Further, in assay [6], the “ELISA binding mIL-12RB2/control” value was 13.5 ratio to control.

B4: anti-IL-12Rβ2 VHH clone 20372 (VHH, not shown: small tags and cut ends)
VHH: QVQLQESGGGLVQAGGSLRLSCAASARTESMYAMAWFRQAPGKEREIVAGIIQSGGTTYISDYMKGRFSIDRGNAENTVYLQMDSLKPEDTAVYSCAAKVSSGTPSDIQISQSRWYDHWGQGTQVTVSS
notes: tested as periplasmic extract; also called 2CRH82
As to B4, in assay [1], the Response was 0.426. In assay [2], the “ELISA binding hIL-12RB2/control” value is 16.1 ratio. Further, in assay [3], the “ELISA binding mIL-12RB2/control” value came to 1.77 ratio. For the same molecule, the koff in assay [4] was 0.00274 s⁻¹.

B5: anti-IL-12Rβ2 VHH clone 2CAM18 (VHH)
VHH: QVQLQESGGGLVQVGDSLKLSCVASGTTFSTHVMAWYRQAPGKQREWVASIDSAGTTNYKDAVKGRFTISRDNVKRTVYLQMNNLKPEDSAVYLCSIPSRNAWGQGTQVTVSS
notes: Tested as periplasmic extract; CDR3 group 45; also called 20475
Turning to B5, the “ELISA binding hIL-12RB2/control” value in assay [5] is 1.51 ratio to control. Further, the “ELISA binding mIL-12RB2/control” value in assay [6] is 3.22 ratio to control.

B6: anti-IL-12Rβ2 VHH clone 3CAM1 (VHH)
VHH: QVQLQESGGGLVQAGGSLRLSCAASGRTFGSHRMGWFRQAPGQEREFVAAIAWRGGTQYYTDSVKGRFTISRDNANNTVYLQMNSLKPEDAAVYYCVAGEGSSWGDITDPRRYVFWGQGTQVTVSS
notes: Tested as periplasmic extract; CDR3 group 48
Consider B6, for which the “ELISA binding hIL-12RB2/control” value in assay [5] was 1.2 ratio to control. In addition, the “ELISA binding mIL-12RB2/control” value in assay [6] is 3.3 ratio to control.

B7: anti-IL-12Rβ2 VHH clone 20370 (VHH, not shown: small tags and cut ends)
VHH: QVQLQESGGGLVQTGGSLRLSCVASGRTFNWSAMGWFRQPPGKEREVVATISGGGTSAYYADSVKGRFTISRDGAKNTLYLQMNSLKPEDTAVYYCAADRVDYRMTLTQNGNHYWGQGTQVTVSS
notes: tested as periplasmic extract; also called 2CRH76
As to B7, the Response in assay [1] was found to be 0.479. Also, the “ELISA binding hIL-12RB2/control” value in assay [2] is 4.57 ratio. Moreover, in assay [3], the “ELISA binding mIL-12RB2/control” value is 0.937 ratio. Further, the koff in assay [4] was 0.00354 s⁻¹.

B8: anti-IL-12Rβ2 VHH clone 2CAMS52 (VHH)
VHH: QVQLQESGGGLVQPGASLRLSCATSGPTLSTYAMGWFRQAPGKEREVVATISWSGGRVTYVDSVKGRFTISRDNAKNTAYLQMNRLRPDDTAVYTCAARESDYGAYDYWGQGTQVTVSS
notes: Tested as periplasmic extract; CDR3 group 55; also called 20535
Turning to B8, the “ELISA binding hIL-12RB2/control” value in assay [5] was 0.969 ratio to control. In assay [6], the “ELISA binding mIL-12RB2/control” value is 6.41 ratio to control.

B9: anti-IL-12Rβ2 VHH clone 2CAMS29 (VHH)
VHH: QVQLQESGGGLVQAGGSLRLSCAASGLTSSTYVIGWFRQAPGKEREFVAAIMLSGGTTIYADSLKGRCTIYKDNAKNTVYLQMNSLKLEDTAVYYCASGLIYRYSDFPRSQKYNFWGQGTQVTVSS
notes: Tested as periplasmic extract; CDR3 group 54; also called 20534
For the molecule B9, in assay [5], the “ELISA binding hIL-12RB2/control” value was 1.06 ratio to control. For the same molecule, in assay [6], the “ELISA binding mIL-12RB2/control” value is 6.24 ratio to control.
